Reference: article PMC12607895 (2025)

B1: HAdV-B11 fiber knob (domain or fragment)
chain: GLTFNSNNICIDDNINTLWTGVNPTEANCQIMNSSESNDCKLILTLVKTGALVTAFVYVIGVSNNFNMLTTHRNINFTAELFFDSTGNLLTRLSSLKTPLNHKSGQNMATGAITNAKGFMPSTTAYPFNDNSREKENYIYGTCYYTASDRTAFPIDISVMLNRRAINDETSYCIRITWSWNTGDAPEVQTSATTLVTSPFTFYYIREDD
modifications: trimer; knob limits by convention (last shaft residues to C-terminus) Source, isoform and limits not given; soluble extracellular domain assumed; N/O-glycosylated; amine-coupled to CM5 chip
B2: HAdV-D56 hexon (natural protein)
chain: ATPSMMPQWAYMHIAGQDASEYLSPGLVQFARATDTYFSLGNKFRNPTVAPTHDVTTDRSQRLTLRFVPVDREDTTYSYKARFTLAVGDNRVLDMASTYFDIRGVLDRGPSFKPYSGTAYNSLAPKGAPNSSQWEQKKANAGEQKETHTYGVAPMGGENITISGLQIGTDTTNGKQDPIYANKLYQPEPQVGEENWQETEAFYGGRALKKETKMKPCYGSFARPTNEKGGQAKLRDPEKSQEDFDIDLAFFDTPGGTLTGGGTEYKADIVMCTENVNLETPDTHVVYKPGKDDDSSEINLVQQSMPNRPNYIGFRDNFVGLMYYNSTGNMGVLAGQASQLNAVVDLQDRNTELSYQLLLDSLGDRTRYFSMWNSAVDSYDPDVRIIENHGVEDELPNYCFPLDGSGTNAAYEGVKVKNGQDGDQESEWEKDTNVADRNQICKGNIYAMEINLQANLWKSFLYSNVALYLPDSYKYTPANVTLPTNTNTYEYMNGRVVAPSLVDAYINIGARWSLDPMDNVNPFNHHRNAGLRYRSMLLGNGRYVPFHIQVPQKFFAIKNLLLLPGSYTYEWNFRKDVNMILQSSLGNDLRVDGASVRFDSVNLYATFFPMAHNTASTLEAMLRNDTNDQSFNDYLSAANMLYPIPAKATNVPISIPSRNWAAFRGWSFTRLKTKETPSLGSGFDPYFVYSGSIPYLDGTFYLNHTFKKVSIMFDSSVSWPGNDRLLTPNEFEIKRSVDGEGYNVAQCNMTKDWFLVQMLSHYNIGYQGFHVPEGYKDRMYSFFRNFQPMSRQVVDEINYKDYKAVTLPFQHNNSGFTGYLAPTMRQGQPYPANFPYPLIGQTAVPSVTQKKFLCDRVMWRIPFSSNFMSMGALTDLGQNMLYANSAHALDMTFEVDPMDEPTLLYLLFEVFDVVRVHQPHRGVIEAVYLRTPFSAGNATT
modifications: Source, isoform and limits not given; soluble extracellular domain assumed; N/O-glycosylated; amine-coupled to CM5 chip
B3: HAdV-D26 hexon (natural protein)
chain: ATPSMMPQWAYMHIAGQDASEYLSPGLVQFARATDTYFSLGNKFRNPTVAPTHDVTTDRSQRLTLRFVPVDREDTTYSYKARFTLAVGDNRVLDMASTYFDIRGVLDRGPSFKPYSGTAYNSLAPKGAPNPSQWETKEKQGTTGGVQQEKDVTKTFGVAATGGINITNQGLLLGTDETAENGKKDIYADKTFQPEPQVGEENWQENEAFYGGRALKKDTKMKPCYGSFARPTNEKGGQAKFKPVNEGEQPKDLDIDFAYFDVPGGSPPAGGSGEEYKADIILYTENVNLETPDTHVVYKPGTSDNSSEINLVQQSMPNRPNYIGFRDNFVGLMYYNSTGNMGVLAGQASQLNAVVDLQDRNTELSYQLLLDSLGDRTRYFSMWNSAVDSYDPDVRIIENHGVEDELPNYCFPLNGTGTNSTYQGVKITNGNDGAEESEWEKDDAISRQNQICKGNVYAMEINLQANLWKSFLYSNVALYLPDSYKYTPANVKLPANTNTYEYMNGRVVAPSLVDAYINIGARWSLDPMDNVNPFNHHRNAGLRYRSMLLGNGRYVPFHIQVPQKFFAIKNLLLLPGSYTYEWNFRKDVNMILQSSLGNDLRVDGASVRFDSVNLYATFFPMAHNTASTLEAMLRNDTNDQSFNDYLSAANMLYPIPAKATNVPISIPSRNWAAFRGWSFTRLKTKETPSLGSGFDPYFVYSGSIPYLDGTFYLNHTFKKVSIMFDSSVSWPGNDRLLTPNEFEIKRSVDGEGYNVAQCNMTKDWFLVQMLSHYNIGYQGFHVPEGYKDRMYSFFRNFQPMSRQVVDEINYKDYKAVTLPFQHNNSGFTGYLAPTMRQGQPYPANFPYPLIGQTAVPSVTQKKFLCDRVMWRIPFSSNFMSMGALTDLGQNMLYANSAHALDMTFEVDPMDEPTLLYLLFEVFDVVRVHQPHRGVIEAVYLRTPFSAGNATT
modifications: Source, isoform and limits not given; soluble extracellular domain assumed; N/O-glycosylated; amine-coupled to CM5 chip
B4: HAdV-C5 fiber knob (domain or fragment)
chain: TGAITVGNKNNDKLTLWTTPAPSPNCRLNAEKDAKLTLVLTKCGSQILATVSVLAVKGSLAPISGTVQSAHLIIRFDENGVLLNNSFLDPEYWNFRNGDLTEGTAYTNAVGFMPNLSAYPKSHGKTAKSNIVSQVYLNGDKTKPVTLTITLNGTQETGDTTPSAYSMSFSWDWSGHNYINEIFATSSYTFSYIAQE
modifications: trimer; limits by convention of the Ad5 knob structure 1KNB Source, isoform and limits not given; soluble extracellular domain assumed; N/O-glycosylated; amine-coupled to CM5 chip
B5: CD46 (receptor)
chain: CEEPPTFEAMELIGKPKPYYEIGERVDYKCKKGYFYIPPLATHTICDRNHTWLPVSDDACYRETCPYIRDPLNGQAVPANGTYEFGYQMHFICNEGYYLIGEEILYCELKGSVAIWSGKPPICEKVLCTPPPKIKNGKHTFSEVEVFEYLDAVTYSCDPAPGPDPFSLIGESTIYCGDNSVWSRAAPECKVVKCRFPVVENGKQISGFGKKFYYKATVMFECDKGFYLDGSDTIVCDSNSTWDPPVPKCLKVLPPSSTKPPALSHSVSTSSTTKSPASSASGPRPTYKPPVSNYPGYPKPEEGILDSLDVWVIAVIVIAIVVGVAVICVVPYRYLQRRKKKGTYLTDETHREVKFTSL
B6: HAdV-D37 fiber knob (domain or fragment)
chain: WNPKYDTRTLWTTPDTSPNCTIAQDKDSKLTLVLTKCGSQILANVSLIVVAGKYHIINNKTNPKIKSFTIKLLFNKNGVLLDNSNLGKAYWNFRSGNSNVSTAYEKAIGFMPNLVAYPKPSNSKKYARDIVYGTIYLGGKPDQPAVIKTTFNQETGCEYSITFNFSWSKTYENVEFETTSFTFSYIAQE
modifications: Source, isoform and limits not given; soluble extracellular domain assumed; N/O-glycosylated; amine-coupled to CM5 chip
B7: CD46 (receptor)
chain: CEEPPTFEAMELIGKPKPYYEIGERVDYKCKKGYFYIPPLATHTICDRNHTWLPVSDDACYRETCPYIRDPLNGQAVPANGTYEFGYQMHFICNEGYYLIGEEILYCELKGSVAIWSGKPPICEKVLCTPPPKIKNGKHTFSEVEVFEYLDAVTYSCDPAPGPDPFSLIGESTIYCGDNSVWSRAAPECKVVKCRFPVVENGKQISGFGKKFYYKATVMFECDKGFYLDGSDTIVCDSNSTWDPPVPKCLKVLPPSSTKPPALSHSVSTSSTTKSPASSASGPRPTYKPPVSNYPGYPKPEEGILDSLD

Key:
Assay in all cases: SPR
CD46 = target: B7
HAdV-B11 hexon = HAdV-B11 hexon (human adenovirus B11 (HAdV-B11))
HAdV-D113 hexon = HAdV-D113 hexon (human adenovirus D113 (HAdV-D113))
HAdV-D113 fiber knob = HAdV-D113 fiber knob (human adenovirus D113 (HAdV-D113))
HAdV-D37 hexon = HAdV-D37 hexon (human adenovirus D37 (HAdV-D37))
HAdV-D56 fiber knob = HAdV-D56 fiber knob (human adenovirus D56 (HAdV-D56))

Row | Binder | Kd (CD46) | further results
1 | B1 | 1.14 nM | –
2 | B2 | 6730 nM | –
3 | B3 | 4240 nM | –
4 | B4 | 130 nM | –
5 | B5 | – | Kd (HAdV-B11 hexon): 210 nM; Kd (HAdV-D113 hexon): 4190 nM; Kd (HAdV-D113 fiber knob): 130 nM
6 | B6 | 2700 nM | –
7 | B7 | – | Kd (HAdV-D37 hexon): 3090 nM; Kd (HAdV-D56 fiber knob): 150 nM
